Data from FireProtDB (doi:10.1021/bi100877y).

Conditions: Escherichia coli (strain K12); pH 7; Thermal; DSC; phosphate 50 mM; whole UniProt chain shown

B1: Outer membrane porin C wild type, P06996 (protein)
chain: MKVKVLSLLVPALLVAGAANAAEVYNKDGNKLDLYGKVDGLHYFSDNKDVDGDQTYMRLGFKGETQVTDQLTGYGQWEYQIQGNSAENENNSWTRVAFAGLKFQDVGSFDYGRNYGVVYDVTSWTDVLPEFGGDTYGSDNFMQQRGNGFATYRNTDFFGLVDGLNFAVQYQGKNGNPSGEGFTSGVTNNGRDALRQNGDGVGGSITYDYEGFGIGGAISSSKRTDAQNTAAYIGNGDRAETYTGGLKYDANNIYLAAQYTQTYNATRVGSLGWANKAQNFEAVAQYQFDFGLRPSLAYLQSKGKNLGRGYDDEDILKYVDVGATYYFNKNMSTYVDYKINLLDDNQFTRDAGINTDNIVALGLVYQF
- Tm: 87 °C
- unfolding enthalpy (calorimetric): 328 kcal/mol
